Among the data in paper PMC10787763, “Two-substrate enzyme engineering using small libraries that combine the substrate preferences from two different variant lineages” (Scientific Reports, 2024) are Km, Vmax and kcat values, retold here.

Substrate in this series: O=Cc1cccc(C(=O)O)c1
The experiment in a line: initial-rate kinetics by RP-HPLC, Michaelis-Menten fit. In kind it is biochemical, Escherichia coli. Conditions: TK-3, acceptor substrate varied, 50 mM pyruvate as donor, 2.4 mM ThDP, 9 mM MgCl2, 50 mM Tris-HCl pH 7.0, 21 °C, error is SEM. The text has this:
initial-rate kinetics by RP-HPLC, Michaelis-Menten fit on E. coli transketolase (TK), 6M variant scaffold

B1: E. coli transketolase (TK), 6M variant scaffold (Escherichia coli K-12; A282P/D469T/G506A/H100L/H192P/I365L/S385F) (protein)
chain: MSSRKELANAIRALSMDAVQKAKSGHPGAPMGMADIAEVLWRDFLKHNPQNPSWADRDRFVLSNGHGSMLIYSLLHLTGYDLPMEELKNFRQLHSKTPGLPEVGYTAGVETTTGPLGQGIANAVGMAIAEKTLAAQFNRPGHDIVDHYTYAFMGDGCMMEGISHEVCSLAGTLKLGKLIAFYDDNGISIDGPVEGWFTDDTAMRFEAYGWHVIRDIDGHDAASIKRAVEEARAVTDKPSLLMCKTIIGFGSPNKAGTHDSHGAPLGDAEIALTREQLGWKYPPFEIPSEIYAQWDAKEAGQAKESAWNEKFAAYAKAYPQEAAEFTRRMKGEMPSDFDAKAKEFIAKLQANPAKIASRKASQNALEAFGPLLPEFLGGSADLAPFNLTLWSGSKAINEDAAGNYIHYGVREFGMTAIANGISLHGGFLPYTSTFLMFVEYARNAVRMAALMKQRQVMVYTHDSIGLGETGPTHQPVEQVASLRVTPNMSTWRPCDQVESAVAWKYAVERQDGPTALILSRQNLAQQERTEEQLANIARGGYVLKDCAGQPELIFIATGSEVELAVAAYEKLTAEGVKARVVSMPSTDAFDKQDAAYRESVLPKAVTARVAVEAGIADYWYKYVGLNGAIVGMTTFGESAPAELLFEEFGFTVDNVVAKAKELL
notes: full-length, C-terminal His6 tag, expressed in E. coli from lab plasmid (pQR791 / pQR729), Ni-NTA purified; holo-TK with ThDP and Mg2+; non-natural residue by amber suppression in TK-5C
What is called Vmax is the top rate of the reaction or transport when substrate is in excess. In general, kcat refers to the number of substrate molecules converted per active site and unit of time at saturation. Consider B1, for which the Km was 82 (11) mM, the Vmax amounted to 3500 µM/min and the kcat came out at 43 s⁻¹.
